Assay results from patent US20100111943A1 (MEDICAL COLLEGE OF GEORGIA RESEARCH INSTITUTE, published 2010).

Assays:
Experiment in all cases: co-IP: anti-FLAG M2 immunoprecipitates immunoblotted with anti-CHIP
[1] = biological target: T1, FLAG (F)-tagged hsp90α K327R mutant (UniProt P07900 1-732)
T1 construct: Made by site-directed mutagenesis, expressed by transfection; also called K/R mutant at K327; acetylation-deficient mutant; not shown: FLAG tag
Procedure: (§1) Following culture in the plates for 24 hours, cells were transfected by Lipofectamine Plus following the protocol provided by Invitrogen (Carlsbad, Calif.). Transfected cells were cultured in full-medium containing drugs dissolved in DMSO or vehicle for 24 hours. Cellular extracts were prepared by directly adding lysis buffer (25 mM Tris-phosphate, pH 7.8, 2 mM DTT, 2 mM 1,2-diaminocyclohexane-N′,N′,N′,N′-tetraacetic acid, 10% glycerol, 0.2% Triton X-100) to the cells on ice. For immuno-precipitations (IP), 2×10⁶ cells in 100 mm dishes were transfected and/or treated as described above. Cellular extracts were prepared and immunoprecipitation performed as described 24. For immunoblotting, cellular extracts or immunoprecipitates were separated on SDS-PAGE, transferred to a nitrocellulose membrane, probed with antibodies, and visualized with enhanced chemiluminescence, as described (Chen, Z., et al., Mol. Pharmacol., 69:1527-33 (2006)).
(§2) The mutants were also analyzed for their ability to bind ATP, as well as for binding to co-chaperones, client proteins and the biotinylated (B) GA (geldanamycin) (Kamal, A., et al., Nature., 425:407-10 (2003)). Precipitates from the mixture of cell lysates containing hsp90α and ATP-sepharose were analyzed with anti-F antibody.

[2] = biological target: T2, FLAG (F)-tagged hsp90α K478R mutant (UniProt P07900 1-732)
T2 construct: Made by site-directed mutagenesis, expressed by transfection; also called K/R mutant at K478; acetylation-deficient mutant; not shown: FLAG tag
Procedure: as §1, §2

[3] = biological target: T3, FLAG (F)-tagged hsp90α K292Q mutant (UniProt P07900 1-732)
T3 construct: Made by site-directed mutagenesis, expressed by transfection; also called K/Q mutant at K292; acetylation-mimetic mutant; not shown: FLAG tag
Procedure: as §1, §2

[4] = biological target: T4, FLAG (F)-tagged hsp90α K69R mutant (UniProt P07900 1-732)
T4 construct: Made by site-directed mutagenesis, expressed by transfection; also called K/R mutant at K69; acetylation-deficient mutant; not shown: FLAG tag
Procedure: as §1, §2

[5] = biological target: T5, FLAG (F)-tagged hsp90α K100R mutant (UniProt P07900 1-732)
T5 construct: Made by site-directed mutagenesis, expressed by transfection; also called K/R mutant at K100; acetylation-deficient mutant; not shown: FLAG tag
Procedure: as §1, §2

[6] = biological target: T6, FLAG (F)-tagged hsp90α K292R mutant (UniProt P07900 1-732)
T6 construct: Made by site-directed mutagenesis, expressed by transfection; also called K/R mutant at K292; acetylation-deficient mutant; not shown: FLAG tag
Procedure: as §1, §2

[7] = biological target: T7, FLAG (F)-tagged hsp90α (wild type) (UniProt P07900 1-732)
T7 construct: Expressed from a plasmid described in cited literature, or translated in vitro; also called F-hsp90α; F-hsp90; not shown: FLAG tag
Procedure: as §1, §2

[8] = biological target: T8, FLAG (F)-tagged hsp90α K558R mutant (UniProt P07900 1-732)
T8 construct: Made by site-directed mutagenesis, expressed by transfection; also called K/R mutant at K558; acetylation-deficient mutant; not shown: FLAG tag
Procedure: as §1, §2

[9] = biological target: T9, FLAG (F)-tagged hsp90α K546R mutant (UniProt P07900 1-732)
T9 construct: Made by site-directed mutagenesis, expressed by transfection; also called K/R mutant at K546; acetylation-deficient mutant; not shown: FLAG tag
Procedure: as §1, §2

Measured: binding result

B1: CHIP (other, UniProt Q9UNE7 1-303, looked up)
chain: MKGKEEKEGGARLGAGGGSPEKSPSAQELKEQGNRLFVGRKYPEAAACYGRAITRNPLVAVYYTNRALCYLKMQQHEQALADCRRALELDGQSVKAHFFLGQCQLEMESYDEAIANLQRAYSLAKEQRLNFGDDIPSALRIAKKKRWNSIEERRIHQESELHSYLSRLIAAERERELEECQRNHEGDEDDSHVRAQQACIEAKHDKYMADMDELFSQVDEKRKKRDIPDYLCGKISFELMREPCITPSGITYDRKDIEEHLQRVGHFDPVTRSPLTQEQLIPNLAMKEVIDAFISENGWVEDY
notes: Endogenous protein co-immunoprecipitated from cell lysates and detected with anti-CHIP
binds: all assays above
